This series concerns the molecule itself. Briefly: EGS crosslinking of recombinant protein, SDS-PAGE, immunoblot. A general note: In western blotting, separated proteins are transferred to a membrane and probed.

Results on 2 proteins are retold here after US7189832 (University of California, dated 2007).

B1: recombinant ΔC-IKK-γ (1-300) (other, not shown: small tags and cut ends)
chain: MNRHLWKSQLCEMVQPSGGPAADQDVLGEESPLGKPAMLHLPSEQGAPETLQRCLEENQELRDAIRQSNQILRERCEELLHFQASQREEKEFLMCKFQEARKLVERLGLEKLDLKRQKEQALREVEHLKRCQQQMAEDKASVKAQVTSLLGELQESQSRLEAATKECQALEGRARAASEQARQLESEREALQQQHSVQVDQLRMQGQSVEAALRMERQAASEEKRKLAQLQVAYHQLFQEYDNHIKSSVVGSERKRGMQLEDLKQQLQQAEEALVAKQEVIDKLKEEAEQHKIVMETVPV
notes: also called C-terminal truncation
B1: the binding result was “binds”.

B2: recombinant ΔN-IKK-γ (134-419) (other, not shown: small tags and cut ends)
chain: QMAEDKASVKAQVTSLLGELQESQSRLEAATKECQALEGRARAASEQARQLESEREALQQQHSVQVDQLRMQGQSVEAALRMERQAASEEKRKLAQLQVAYHQLFQEYDNHIKSSVVGSERKRGMQLEDLKQQLQQAEEALVAKQEVIDKLKEEAEQHKIVMETVPVLKAQADIYKADFQAERQAREKLAEKKELLQEQLEQLQREYSKLKASCQESARIEDMRKRHVEVSQAPLPPAPAYLSSPLALPSQRRSPPEEPPDFCCPKCQYQAPDMDTLQIHVMECIE
notes: also called N-terminal truncation
Take B2: the binding result is recorded as “binds”.
